Source: PMC6879633

How the values were obtained:
[1] = target: WT-A34F, A34F point mutant of wild-type Gβ1 (Streptococcus); assay: SEC; analytical size-exclusion chromatography, Superdex 200 Increase; 1 mL of protein at 1 mM loaded; 10 mM sodium phosphate buffer pH 7.4, 1 mL/min; elution time compared with monomeric (wild type) and dimeric (WT-A34F) controls; self-association, monomer or dimer
[2] = target: WT-A34F/V39L double mutant of wild-type Gβ1 (Streptococcus); assay: NMR titration
[3] = target: WT-A34F/V39L double mutant of wild-type Gβ1 (Streptococcus); assay: SEC; analytical size-exclusion chromatography, Superdex 200 Increase; 1 mL of protein at 1 mM loaded; 10 mM sodium phosphate buffer pH 7.4, 1 mL/min; elution time compared with monomeric (wild type) and dimeric (WT-A34F) controls; self-association, monomer or dimer

WT-A34F, A34F point mutant of wild-type Gβ1 (domain or fragment)
stoichiometry N [1]: 2

WT-A34F/V39L double mutant of wild-type Gβ1 (domain or fragment)
Kd [2]: 116 µM | stoichiometry N [3]: 2
